This is an account of results in the DeepSol protein solubility set.

This data set is described as follows: soluble on expression in E. coli; label from the status in PepcDB or PDB records.
For “MEQSQRTQLSYEGAKSVIRFMSIEKRIQIHCRIPYYRKTNALFPYAHRQMTLSSDGISIGSNHYTFDIRRSNFGRRFRDDFGGESDEEPEAAPLEPALAELNLRDRARREREILREEHYQREDDERLRAQQNQVHIRYGETQYEVRRNFGQRRNPEEAFIKLFDAYISTGTTIEKLLFTGFPKFLKKRDPSKLQFKVRELKLSSLRDRTLEKIVPFIGASKLKKMNLDVGPDTISYLDLPMIKNCEVLNLNISMWNERNRQRNENNNFSKLSNLRNMKLNLILERFTIDDLQRLALNWIFTRRPIGTYFKTGVNQQYDHILDIFDRLIEENRASRCRITKLGTVYFANGVKLSIDGKSELVVYGGPKWKTRAGIDGQWTIHMEVMAVGDTTPSA”, the “soluble on expression in E. coli” value is reported as “not soluble”.
As for “MEQVFAPWRIEWVERDDTTDDDVDCVFCAFPGREHARQHLVVARTDHAAVMLNNYPYNPGHCMVIPDVHTGDYGDLDADTLLDHARLKQATLDALDAALGPDAFNTGLNLGGGAAGGSIGDHLHTHVVPRWNGDTNFMPVISDTKVIVEALDDTYDRLHDAFLARPDATEAPTGAVFVDFNLEHHHHHH”, the “soluble on expression in E. coli” value is “not soluble”.
Take “MERECEESVVVAVVTEPRFTQRYRDYLEEQKLLDRLHRVAKLRDGAVALPVLAESLSEQHLQELRDRVAPGSTCVLTRLPDPLPSKKARVRSPAQILCLEVRRWVEDRGVTWSAELEADLPRSWQRHGDLMLLSEDCFQATLWKGLEPELWETVASALGVQRLAKRGRVLPDGTRTPSVTLLLGDHGWVEHMDNGIRYKFDVTQCMFSFGNITEKLRVASLSCAGEVLVDLYAGIGYFTLPFLVHAGAAFVHACEWNPHAVVALRNNLEINGVADRCQIHFGDNRKLKLSDIADRVNLGLIPSSKEGWPVACQVLRKDVGGILHIHQNVESFSGKTPQPPGSNNVEKEHWPRPQKITTDTQGNGTTENFRGEISSANKPEWWRWAESAETQIASLLHQVHGKPWRTRILHVHPVKSYAPHVDHIVLDLECRPLTSSWPEGVDLLTQ”: the “soluble on expression in E. coli” value is listed as “soluble”.
For the sequence “MERETPKTPTPTPYTNIYAALNNKKTNDEVASKVTEELNKLKIAEEKDNKIVSREKPEMMSLNTLVEMCSAGEKPTKGKSEKDIRKKKAPVLVDDNQSYVMIGPPSEPVEPPATLSTETSKTNAIEESTVKRSEALSAYIGVATLNDAENHLTRRGEFALYHLFNPNGRLDTITEKLPLMIVYRTTTKKNRHYSIRTTCDQQFFVDCGYPNVRKHYSLNHLVKFYKVRILLPDTIQKQQLTDILQILKQFQTSATCEINPYDTSADSFSWWLE”, the “soluble on expression in E. coli” value was “soluble”.
The entry for “MERIAMNPLMQQAIQFANDHETAWDRSVRGNFGVHLDDPPPWNRLLGPVHDRGPVSGVVVVDGQTLASWGEPERADLTFSVAKLYLSILAGVAHDRGLLPDVDEPVGRRVPGIGFDAGRNARITWRHLLQQTSEWEGERFGVPDQADRYRAVAFGIPPDGRKGDARPLQEPGTYWEYNDVRINQLSYALLHLFRRPLPEVFREAVTRPLGASEDWQWVGYDNAWVDIDGVRMPSVPGGTHWGGGMSISARDQALIGRMLLDEGRAADGRQVLSPAWIQAMRTPCDIAPYYGYLIWLNHERKVFPSVPASSFFGIGAGSSFTWVEPERRMVVIVRWLDAAYADALFGRILAAVDAHRAGLEHHHHHH” is “not soluble”; for “MERQVFIRLRHRLEADPDELILLGHIAQVAGDRGYKEKLERLPIYQVSKADQSMVVLDVMKVIEAVHKSFPDLDVQTVGGSETIVEIQYPKRDLSP” it is “soluble”.
The entry for “MERRKDTEVALAQRDTILQTILDASPDSIGIFNENMVYQACNKPFVNALGISEVSDLIGKRLQDVIPVEMYTRLETSDLHALRQAEPVRYIDKVVSSDGHITWFDVVKSPFKDKASGTNGVLIMARDIS” is “not soluble”; for “MERRLGVRAWVKENRGSFQPPVCNKLMHQEQLKVMFVGGPNTRKDYHIEEGEEVFYQLEGDMVLRVLEQGKHRDVVIRQGEIFLLPARVPHSPQRFANTVGLVVERRRLETELDGLRYYVGDTMDVLFEKWFYCKDLGTQLAPIIQEFFSSEQYRTGKPIPDQLLKEPPFPLSTRSIMEPMSLDAWLDSHHRELQAGTPLSLFGDTYETQVIAYGQGSSEGLRQNVDVWLWQLEGSSVVTMGGRRLSLAPDDSLLVLAGTSYAWERTQGSVALSVTQDPACKKPLGLEHHHHHH” it is “not soluble”.
